Laboratory results taken from the supplement of paper PMC10065799, “High-throughput profiling of sequence recognition by tyrosine kinases and SH2 domains using bacterial peptide display” (eLife, 2023).

Tested on: Fer (mouse)
Test: phosphorylation enrichment, bacterial display (enrichment ratio); higher = better substrate or ligand; peptides without Tyr show the background
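Note: 11-residue human phosphosite peptides and single-mutation variants displayed on the E. coli surface, counted by deep sequencing, each peptide's frequency after selection divided by its frequency in the unselected input library; frequency after pTyr selection over input frequency; kinase dosed for 20-30% of maximal phosphorylation in three min.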

Row | Sequence | phosphorylation enrichment
1 | ARRHPYFFAPE [ALB_Y172_Y174F] | 0.559
2 | SVVVPYESPEV [TP53_Y220_P222S] | 0.488
3 | RRIHSYRGHLW [VHL_Y112] | 1.47
4 | WFPANYVKLLS [ITSN1_Y1132] | 0.518
5 | DLVLQYLRVPL [F9_Y371_A366D] | 0.435
6 | DNEALYDICFC [TUBB3_Y208_R213C] | 12.5
7 | GLVFLYMEKNQ [PRELP_Y156] | 0.635
8 | ERRLIYASDPK [VPS13D_Y864_T865A] | 0.395
9 | PPAPRCHHSAV [LZTR1_Y119_Y119C] | 2.15
10 | NDDDVYLSLEE [VAV2_Y142_R143L] | 0.656
11 | NTGDDYDLYGG [PTPN11_Y63_Y62D] | 0.775
12 | SLESAYPEGSQ [TTF1_Y357] | 0.457
13 | ESLRPYDVMDV [KCNQ2_Y562] | 0.846
14 | FKDYFYCWNTF [AICDA_Y146] | 1.46
15 | DKANRYFSPNF [PTEN_Y336] | 0.375
16 | KDQGIYEDYVE [MYL6_Y86_T85I] | 1.03
17 | EKESCYILHSS [PATJ_Y783_E779K] | 0.623

Row | Sequence | phosphorylation enrichment
18 | EILDVYIFLGP [GAA_Y340_G335E] | 0.532
19 | DLITAYRAHGF [PDHA1_Y118_H113D] | 0.387
20 | LNPLIYTLRNA [OR4C46_Y285_K288R] | 1.03
21 | MEVGQYFFVKC [CYBB_Y324_I325F] | 0.801
22 | KKRSVYIKVLF [CC2D2A_Y683_L684I] | 0.451
23 | KYLENYLNCLL [PLD2_Y169_R172C] | 0.707
24 | YRAVKYLQMVG [AVPR2_Y117_C112Y] | 0.429
25 | AAGGRYDGLVG [HARS1_Y363] | 0.306
26 | RQIQSYTCEID [DES_Y331_H326R] | 0.485
27 | LLKKVYLMLDN [STAT1_Y203_M202V] | 0.801
28 | RREWYYEVIIV [BACE1_Y260] | 0.835
29 | LEDEVYAQKMK [TPM2_Y261] | 1.91
30 | NTGVYYDLYGG [PTPN11_Y63_D61V] | 2.49
31 | HRLSTYTKMLF [CHST8_Y251] | 0.689
32 | PSAVAYPKRSQ [MARK3_Y432_V429A] | 0.444
33 | SVVVPYEPPDV [TP53_Y220_E224D] | 0.456

Tested on: c-Src
Test: as above

Row | Sequence | phosphorylation enrichment
34 | ARRHPYFFAPE [ALB_Y172_Y174F] | 0.721
35 | SVVVPYESPEV [TP53_Y220_P222S] | 0.509
36 | RRIHSYRGHLW [VHL_Y112] | 3.66
37 | WFPANYVKLLS [ITSN1_Y1132] | 0.399
38 | DLVLQYLRVPL [F9_Y371_A366D] | 0.46
39 | DNEALYDICFC [TUBB3_Y208_R213C] | 6.25
40 | GLVFLYMEKNQ [PRELP_Y156] | 0.37
41 | ERRLIYASDPK [VPS13D_Y864_T865A] | 0.475
42 | PPAPRCHHSAV [LZTR1_Y119_Y119C] | 0.718
43 | NDDDVYLSLEE [VAV2_Y142_R143L] | 0.804
44 | NTGDDYDLYGG [PTPN11_Y63_Y62D] | 1.65
45 | SLESAYPEGSQ [TTF1_Y357] | 0.406
46 | ESLRPYDVMDV [KCNQ2_Y562] | 0.719
47 | FKDYFYCWNTF [AICDA_Y146] | 1.41
48 | DKANRYFSPNF [PTEN_Y336] | 0.362
49 | KDQGIYEDYVE [MYL6_Y86_T85I] | 2.02
50 | EKESCYILHSS [PATJ_Y783_E779K] | 0.595

Row | Sequence | phosphorylation enrichment
51 | EILDVYIFLGP [GAA_Y340_G335E] | 0.962
52 | DLITAYRAHGF [PDHA1_Y118_H113D] | 0.373
53 | LNPLIYTLRNA [OR4C46_Y285_K288R] | 6.62
54 | MEVGQYFFVKC [CYBB_Y324_I325F] | 0.667
55 | KKRSVYIKVLF [CC2D2A_Y683_L684I] | 0.304
56 | KYLENYLNCLL [PLD2_Y169_R172C] | 0.498
57 | YRAVKYLQMVG [AVPR2_Y117_C112Y] | 0.36
58 | AAGGRYDGLVG [HARS1_Y363] | 0.348
59 | RQIQSYTCEID [DES_Y331_H326R] | 0.474
60 | LLKKVYLMLDN [STAT1_Y203_M202V] | 0.816
61 | RREWYYEVIIV [BACE1_Y260] | 0.635
62 | LEDEVYAQKMK [TPM2_Y261] | 1.22
63 | NTGVYYDLYGG [PTPN11_Y63_D61V] | 5.31
64 | HRLSTYTKMLF [CHST8_Y251] | 0.585
65 | PSAVAYPKRSQ [MARK3_Y432_V429A] | 0.696
66 | SVVVPYEPPDV [TP53_Y220_E224D] | 0.415
